Values of other authors as cited in publication PMC8348223.
pKd: −log10 of the molar value.

What was measured:
Bax = Bax (UniProt Q07812)
Bcl-XL = Bcl-XL (UniProt Q07817)
Chain of Bcl-XL (Q07817 whole entry): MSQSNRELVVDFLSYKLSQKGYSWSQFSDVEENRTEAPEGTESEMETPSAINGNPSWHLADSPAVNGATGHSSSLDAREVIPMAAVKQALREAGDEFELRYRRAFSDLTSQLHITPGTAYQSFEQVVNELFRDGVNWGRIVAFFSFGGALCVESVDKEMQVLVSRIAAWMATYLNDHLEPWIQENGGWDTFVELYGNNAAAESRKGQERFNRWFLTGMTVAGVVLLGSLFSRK

Chain of tBid (P55957 61-195): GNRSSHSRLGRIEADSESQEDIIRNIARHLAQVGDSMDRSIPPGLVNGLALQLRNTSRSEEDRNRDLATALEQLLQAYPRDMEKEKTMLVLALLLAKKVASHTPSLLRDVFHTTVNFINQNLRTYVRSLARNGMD
Chain of Bax (Q07812 whole entry): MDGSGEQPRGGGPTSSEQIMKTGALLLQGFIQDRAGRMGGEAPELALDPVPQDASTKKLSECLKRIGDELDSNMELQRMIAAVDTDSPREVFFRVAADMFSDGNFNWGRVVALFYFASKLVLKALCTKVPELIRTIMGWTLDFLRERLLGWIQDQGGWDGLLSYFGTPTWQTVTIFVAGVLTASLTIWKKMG

Question: With tBid (from UniProt P55957) as the substance, how does the pKd (Bax) read?
Answer: 7.70

Question: What about the pKd (Bcl-XL) of the same substance?
Answer: 9.00
